In the supplement of paper PMC9112550, “Optimization of the antimicrobial peptide Bac7 by deep mutational scanning” (BMC Biology, 2022):

Tested on: Escherichia coli TOP10
Assay: shrunken log2 fold change of peptide-encoding DNA abundance (4.5 h post-induction vs induction); higher = less antimicrobial activity (less host growth inhibition)
Conditions: time post-induction: 4.5 h; library: site-saturation at positions 5, 18, 19, 20
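Also: peptides expressed intracellularly from a pBAD plasmid library in pooled LB shake-flask culture, induced with 0.3% L-arabinose, DNA abundance read by NGS, three biological replicates, DESeq2 with apeglm shrinkage.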

| Sequence | shrunken log2 fold change |
| --- | --- |
| RRIRLRPPRLPRPRPRPYYPPRP | -0.117 |
| RRIRFRPPRLPRPRPRPAYSPRP | 0.00204 |
| RRIRNRPPRLPRPRPRPPFGPRP | 0.291 |
| RRIRKRPPRLPRPRPRPQGLPRP | 0.256 |
| RRIRARPPRLPRPRPRPNHFPRP | -0.0665 |
| RRIRWRPPRLPRPRPRPTENPRP | 0.0907 |
| RRIRRRPPRLPRPRPRPYMWPRP | -0.374 |
| RRIRHRPPRLPRPRPRPNDYPRP | -0.56 |
| RRIRRRPPRLPRPRPRPWWWPRP | 0.184 |
| RRIRYRPPRLPRPRPRPDGDPRP | 0.00902 |
| RRIRVRPPRLPRPRPRPMKSPRP | 3.02 |
| RRIRNRPPRLPRPRPRPIAGPRP | -0.0235 |
| RRIRVRPPRLPRPRPRPGHTPRP | -0.000319 |
| RRIRERPPRLPRPRPRPHWKPRP | -0.0167 |
| RRIRFRPPRLPRPRPRPMPIPRP | 0.0193 |
| RRIRQRPPRLPRPRPRPPWNPRP | 0.0241 |
| RRIRHRPPRLPRPRPRPLYTPRP | -0.57 |
| RRIRSRPPRLPRPRPRPHWTPRP | -0.0566 |
| RRIRKRPPRLPRPRPRPESEPRP | 2.93 |
| RRIRCRPPRLPRPRPRPQWDPRP | -0.0642 |

| Sequence | shrunken log2 fold change |
| --- | --- |
| RRIRRRPPRLPRPRPRPKMPPRP | 0.191 |
| RRIRFRPPRLPRPRPRPPPSPRP | 1.35 |
| RRIRVRPPRLPRPRPRPPHAPRP | 0.351 |
| RRIRHRPPRLPRPRPRPEMKPRP | -0.0143 |
| RRIRYRPPRLPRPRPRPMHYPRP | -1.03 |
| RRIRHRPPRLPRPRPRPHHVPRP | -0.35 |
| RRIRFRPPRLPRPRPRPPVWPRP | 0.622 |
| RRIRGRPPRLPRPRPRPCPEPRP | -0.0446 |
| RRIRMRPPRLPRPRPRPFINPRP | -0.278 |
| RRIRVRPPRLPRPRPRPDTMPRP | -0.177 |
| RRIRNRPPRLPRPRPRPLMGPRP | -0.254 |
| RRIRNRPPRLPRPRPRPACIPRP | 0.0248 |
| RRIRARPPRLPRPRPRPGGLPRP | 0.936 |
| RRIRPRPPRLPRPRPRPKPKPRP | 0.382 |
| RRIRKRPPRLPRPRPRPMYGPRP | 0.00748 |
| RRIRDRPPRLPRPRPRPGAVPRP | 0.614 |
| RRIRNRPPRLPRPRPRPYIAPRP | -0.172 |
| RRIRQRPPRLPRPRPRPWHCPRP | -0.0682 |
| RRIRPRPPRLPRPRPRPKSYPRP | -0.0208 |
| RRIRQRPPRLPRPRPRPPHHPRP | 0.972 |

| Sequence | shrunken log2 fold change |
| --- | --- |
| RRIRYRPPRLPRPRPRPIYPPRP | -0.559 |
| RRIRQRPPRLPRPRPRPSIWPRP | -0.0257 |
| RRIRPRPPRLPRPRPRPYGHPRP | 0.0138 |
| RRIRIRPPRLPRPRPRPLNWPRP | -0.291 |
| RRIRMRPPRLPRPRPRPITFPRP | 0.0589 |
| RRIRWRPPRLPRPRPRPAIDPRP | 0.294 |
| RRIRNRPPRLPRPRPRPYNMPRP | -0.0281 |
| RRIRFRPPRLPRPRPRPWWIPRP | -0.681 |
| RRIRNRPPRLPRPRPRPFVYPRP | -0.0264 |
| RRIRVRPPRLPRPRPRPNFYPRP | -0.146 |
| RRIRTRPPRLPRPRPRPNLWPRP | -0.0774 |
| RRIRVRPPRLPRPRPRPRLWPRP | 0.45 |
| RRIRVRPPRLPRPRPRPYLIPRP | 0.0388 |
| RRIRMRPPRLPRPRPRPRRRPRP | 1.53 |
| RRIRWRPPRLPRPRPRPLGIPRP | -0.242 |
| RRIRRRPPRLPRPRPRPRFRPRP | 0.455 |
| RRIRWRPPRLPRPRPRPADLPRP | 0.331 |
| RRIRMRPPRLPRPRPRPCCQPRP | 0.212 |
| RRIRGRPPRLPRPRPRPVVPPRP | 0.338 |
| RRIRCRPPRLPRPRPRPNLYPRP | -0.347 |
